± gives the uncertainty stated by the source.
B1: Calcium-binding protein 2, residues 155 to 219; numbered along this chain, Q9NPB3 (parent)
chain: RELRDAFREFDTNGDGRISVGELRAALKALLGERLSQREVDEILQDVDLNGDGLVDFEEFVRMMS

Variants of: B1
Assay: abundance fitness (aPCA) (normalised: wild type 0, dead -1); higher = more abundant; growth selection in yeast, the domain comes from the species named
Details: Homo sapiens

Variant	abundance fitness
RELRDKFREFDTNGDGRISVGELRAALKALLGERLSQREVDEILQDVDLNGDGLVDFEEFVRMMS [A6K]	0.157 ± 0.088
RELRDTFREFDTNGDGRISVGELRAALKALLGERLSQREVDEILQDVDLNGDGLVDFEEFVRMMS [A6T]	0.173 ± 0.061
RELRDAFREFDTNGDGRISVGELRAALKALLGERMSQREVDEILQDVDLNGDGLVDFEEFVRMMS [L35M]	-0.399 ± 0.13
RELRDAFREFDTNGDGRISVGELRAALKALLGERLSQREVDERLQDVDLNGDGLVDFEEFVRMMS [I43R]	0.03 ± 0.065
RELRDAFREFDTNGDGRISVGELRAALKALLGERLSQREVDETLQDVDLNGDGLVDFEEFVRMMS [I43T]	0.092 ± 0.084
RELRDAFREFDTNGDGRISVGELRAALKALLGERLWQREVDEILQDVDLNGDGLVDFEEFVRMMS [S36W]	-0.177 ± 0.07
RELRDAFREFDDNGDGRISVGELRAALKALLGERLSQREVDEILQDVDLNGDGLVDFEEFVRMMS [T12D]	-0.42 ± 0.13
RELRDAFREFDLNGDGRISVGELRAALKALLGERLSQREVDEILQDVDLNGDGLVDFEEFVRMMS [T12L]	-0.279 ± 0.07
RELRDAFREFDWNGDGRISVGELRAALKALLGERLSQREVDEILQDVDLNGDGLVDFEEFVRMMS [T12W]	-0.538 ± 0.11
RELRDAFREFCTNGDGRISVGELRAALKALLGERLSQREVDEILQDVDLNGDGLVDFEEFVRMMS [D11C]	-0.546 ± 0.11
RELRDAFREFDTNGDGRISVGELRAALKALLGERLSQREVDEILQDVDLNGDGLVDFHEFVRMMS [E58H]	-0.008 ± 0.17
RELRDAFREFDTNGDGRISVGELRAALKALLGERLSQREVDEILQDVDLNGDGLVDFFEFVRMMS [E58F]	-0.331 ± 0.24
RELRDAFREFDTNGDGRISVGELRAALKALLGERLSQREVDEILQDVDLNGDGLVDFREFVRMMS [E58R]	-0.117 ± 0.086
RELRDAFREFDTNGDGRISVGELRAALKAWLGERLSQREVDEILQDVDLNGDGLVDFEEFVRMMS [L30W]	-0.245 ± 0.055
RELRDAFREFDTNGDGRIEVGELRAALKALLGERLSQREVDEILQDVDLNGDGLVDFEEFVRMMS [S19E]	-0.169 ± 0.1
RELRDAFREFDTNGDGRISPGELRAALKALLGERLSQREVDEILQDVDLNGDGLVDFEEFVRMMS [V20P]	0.163 ± 0.11
RELRDAFREFDTNGDGRISVGELRAALKALLYERLSQREVDEILQDVDLNGDGLVDFEEFVRMMS [G32Y]	-0.269 ± 0.32
RELRDAFREFDTNGDGRISVGELRAALKALLCERLSQREVDEILQDVDLNGDGLVDFEEFVRMMS [G32C]	-0.514 ± 0.2
RELRDAFREFDTNGDGRISVGELRAALKALLGERLSGREVDEILQDVDLNGDGLVDFEEFVRMMS [Q37G]	-0.072 ± 0.072
RELRDAFREFDTNGDGRISVGELRAALKALLGERLSHREVDEILQDVDLNGDGLVDFEEFVRMMS [Q37H]	-0.504 ± 0.27
RELRDAFREFDTNGDGRISVGELRAALKALLGERLSMREVDEILQDVDLNGDGLVDFEEFVRMMS [Q37M]	-0.278 ± 0.14

Variant	abundance fitness
RELRDAFREFDTNGDGRISVGELRAALKALLGERLSQREVDEILVDVDLNGDGLVDFEEFVRMMS [Q45V]	-0.108 ± 0.068
RELRDAFREFDTNGDGRISVGELRAALKALLGERLSQREVDEILWDVDLNGDGLVDFEEFVRMMS [Q45W]	-0.109 ± 0.076
RELRDAFREFDTNGDGRISVGELRAALKALLGERLSQREVDEILQDIDLNGDGLVDFEEFVRMMS [V47I]	-0.204 ± 0.048
RELRDAFREFDTNGDGRISVGELRAALKALLGERLSQREVMEILQDVDLNGDGLVDFEEFVRMMS [D41M]	-0.302 ± 0.12
RELRDAFREFDTNGDGRISVGELRAALKALLGERLSQREVNEILQDVDLNGDGLVDFEEFVRMMS [D41N]	-0.506 ± 0.48
RELRDAFREFDTNGDGRISVGELRAALKALLGERLSQREVEEILQDVDLNGDGLVDFEEFVRMMS [D41E]	-0.077 ± 0.083
RELRDAFREFDTNGDGRISVGELRAALKALLGERLSQREVHEILQDVDLNGDGLVDFEEFVRMMS [D41H]	-0.437 ± 0.11
RELRDAFREFDTNGDGRISVGELRAALKVLLGERLSQREVDEILQDVDLNGDGLVDFEEFVRMMS [A29V]	-0.27 ± 0.083
RELRDAFREFDTNGDGEISVGELRAALKALLGERLSQREVDEILQDVDLNGDGLVDFEEFVRMMS [R17E]	-0.295 ± 0.1
RELRDAFREFDTNGDGVISVGELRAALKALLGERLSQREVDEILQDVDLNGDGLVDFEEFVRMMS [R17V]	-0.158 ± 0.053
RELRDAFREFDTNGDGRISVGELRAALKALLGERLSQREVDKILQDVDLNGDGLVDFEEFVRMMS [E42K]	-0.178 ± 0.15
RELRDAFREFDTNGDGRISVGELRAALKALLGERLSQREVDMILQDVDLNGDGLVDFEEFVRMMS [E42M]	-0.143 ± 0.14
RELRDAFREFDTNGDGRISVGELRAALKALLGERLSQREVDSILQDVDLNGDGLVDFEEFVRMMS [E42S]	-0.136 ± 0.077
RELRDAFREFDTNGDGRISVGELRAALKALLGERLSQREVDEILQDVDLNGDALVDFEEFVRMMS [G53A]	-0.115 ± 0.064
RELRDAFREFDTNGDGRISVGELRAALVALLGERLSQREVDEILQDVDLNGDGLVDFEEFVRMMS [K28V]	0.089 ± 0.07
RELRDAFREKDTNGDGRISVGELRAALKALLGERLSQREVDEILQDVDLNGDGLVDFEEFVRMMS [F10K]	-0.155 ± 0.12
RELRDAFREFDTNGDGRISVGELRAALKALLGERLSQAEVDEILQDVDLNGDGLVDFEEFVRMMS [R38A]	0.001 ± 0.068
RELRDAFREFDTNGDGRISVGELRAALKALLGERLSQKEVDEILQDVDLNGDGLVDFEEFVRMMS [R38K]	-0.67 ± 0.47
RELRDAFREFDTNGDGRISVGELRAALKALLGERLSQEEVDEILQDVDLNGDGLVDFEEFVRMMS [R38E]	-0.232 ± 0.17
REPRDAFREFDTNGDGRISVGELRAALKALLGERLSQREVDEILQDVDLNGDGLVDFEEFVRMMS [L3P]	-0.441 ± 0.11
REFRDAFREFDTNGDGRISVGELRAALKALLGERLSQREVDEILQDVDLNGDGLVDFEEFVRMMS [L3F]	-0.113 ± 0.2

Reference: the Human Domainome abundance scans (Beltran et al. 2025)
